± gives the uncertainty stated by the source.
Experiment: abundance fitness (aPCA) (normalised: wild type 0, dead -1); higher = more abundant; growth selection in yeast, the domain comes from the species named
Conditions: Homo sapiens

Substance | abundance fitness
DnaJ homolog subfamily B member 1 A15S, P25685 | -0.109 ± 0.074
DnaJ homolog subfamily B member 1 A28S, P25685 | -0.172 ± 0.11
DnaJ homolog subfamily B member 1 R13Y, P25685 | -0.279 ± 0.091
DnaJ homolog subfamily B member 1 P33M, P25685 | 0.039 ± 0.079
DnaJ homolog subfamily B member 1 R26M, P25685 | -0.121 ± 0.13
DnaJ homolog subfamily B member 1 K37Q, P25685 | -0.2 ± 0.089
DnaJ homolog subfamily B member 1 K46G, P25685 | -0.016 ± 0.16
DnaJ homolog subfamily B member 1 L29T, P25685 | -0.131 ± 0.072
DnaJ homolog subfamily B member 1 K60M, P25685 | -0.462 ± 0.11
DnaJ homolog subfamily B member 1 Y6P, P25685 | -0.589 ± 0.2
DnaJ homolog subfamily B member 1 K44Q, P25685 | -0.192 ± 0.16
DnaJ homolog subfamily B member 1 A23M, P25685 | -0.328 ± 0.068
DnaJ homolog subfamily B member 1 I48A, P25685 | -0.108 ± 0.079
DnaJ homolog subfamily B member 1 R25V, P25685 | 0.003 ± 0.062
DnaJ homolog subfamily B member 1 L29Q, P25685 | 0.086 ± 0.18
DnaJ homolog subfamily B member 1 E50P, P25685 | -0.885 ± 0.18
DnaJ homolog subfamily B member 1 G10S, P25685 | -0.163 ± 0.061
DnaJ homolog subfamily B member 1 A12I, P25685 | -0.163 ± 0.11
DnaJ homolog subfamily B member 1 G14T, P25685 | -0.072 ± 0.092
DnaJ homolog subfamily B member 1 R61D, P25685 | -0.668 ± 0.18
DnaJ homolog subfamily B member 1 S56D, P25685 | -0.551 ± 0.094
DnaJ homolog subfamily B member 1 G10V, P25685 | -0.606 ± 0.087
DnaJ homolog subfamily B member 1 K37R, P25685 | -0.115 ± 0.066
DnaJ homolog subfamily B member 1 E50N, P25685 | -0.328 ± 0.1
DnaJ homolog subfamily B member 1 Y52G, P25685 | -0.194 ± 0.077
DnaJ homolog subfamily B member 1 L11V, P25685 | -0.041 ± 0.065

Substance | abundance fitness
DnaJ homolog subfamily B member 1 S56P, P25685 | -0.99 ± 0.1
DnaJ homolog subfamily B member 1 K35R, P25685 | 0.034 ± 0.092
DnaJ homolog subfamily B member 1 Y24N, P25685 | -0.408 ± 0.11
DnaJ homolog subfamily B member 1 A23H, P25685 | -0.312 ± 0.14
DnaJ homolog subfamily B member 1 A49K, P25685 | 0.13 ± 0.13
DnaJ homolog subfamily B member 1 Q7N, P25685 | 0.019 ± 0.13
DnaJ homolog subfamily B member 1 K35T, P25685 | -0.414 ± 0.095
DnaJ homolog subfamily B member 1 F45Q, P25685 | -0.211 ± 0.11
DnaJ homolog subfamily B member 1 E43S, P25685 | -0.014 ± 0.092
DnaJ homolog subfamily B member 1 R59P, P25685 | -0.4 ± 0.15
DnaJ homolog subfamily B member 1 P33I, P25685 | -0.085 ± 0.097
DnaJ homolog subfamily B member 1 E19V, P25685 | -0.491 ± 0.093
DnaJ homolog subfamily B member 1 L29R, P25685 | -0.06 ± 0.077
DnaJ homolog subfamily B member 1 A41R, P25685 | -0.181 ± 0.07
DnaJ homolog subfamily B member 1 Y6W, P25685 | -0.204 ± 0.13
DnaJ homolog subfamily B member 1 A41G, P25685 | -0.104 ± 0.067
DnaJ homolog subfamily B member 1 K37V, P25685 | -0.356 ± 0.083
DnaJ homolog subfamily B member 1 P33L, P25685 | -0.091 ± 0.056
DnaJ homolog subfamily B member 1 K44R, P25685 | -0.057 ± 0.084
DnaJ homolog subfamily B member 1 Y5S, P25685 | -0.262 ± 0.1
DnaJ homolog subfamily B member 1 K21E, P25685 | -0.182 ± 0.1
DnaJ homolog subfamily B member 1 A51S, P25685 | -0.406 ± 0.08
DnaJ homolog subfamily B member 1 G40K, P25685 | 0.005 ± 0.15
DnaJ homolog subfamily B member 1 E42A, P25685 | 0.002 ± 0.077
DnaJ homolog subfamily B member 1 D53F, P25685 | -0.249 ± 0.19
DnaJ homolog subfamily B member 1 P33C, P25685 | -0.11 ± 0.1

Substance | abundance fitness
DnaJ homolog subfamily B member 1 S16K, P25685 | -0.188 ± 0.12
DnaJ homolog subfamily B member 1 L11A, P25685 | -0.147 ± 0.078
DnaJ homolog subfamily B member 1 Y31F, P25685 | -0.347 ± 0.17
DnaJ homolog subfamily B member 1 D17C, P25685 | 0.031 ± 0.23
DnaJ homolog subfamily B member 1 G14Y, P25685 | -0.378 ± 0.32
DnaJ homolog subfamily B member 1 D4L, P25685 | -0.341 ± 0.23
DnaJ homolog subfamily B member 1 R26S, P25685 | 0.064 ± 0.068
DnaJ homolog subfamily B member 1 E38G, P25685 | -0.068 ± 0.098
DnaJ homolog subfamily B member 1 A28K, P25685 | -0.149 ± 0.083
DnaJ homolog subfamily B member 1 Q7W, P25685 | -0.207 ± 0.15
DnaJ homolog subfamily B member 1 I63G, P25685 | -0.003 ± 0.089
DnaJ homolog subfamily B member 1 R59H, P25685 | -0.167 ± 0.11
DnaJ homolog subfamily B member 1 V54N, P25685 | -0.084 ± 0.11
DnaJ homolog subfamily B member 1 A15W, P25685 | -1.17 ± 0.085
DnaJ homolog subfamily B member 1 E47P, P25685 | -0.212 ± 0.088
DnaJ homolog subfamily B member 1 K46W, P25685 | -0.175 ± 0.31
DnaJ homolog subfamily B member 1 R30S, P25685 | -0.024 ± 0.073
DnaJ homolog subfamily B member 1 V54Q, P25685 | -0.423 ± 0.21
DnaJ homolog subfamily B member 1 A12R, P25685 | -0.147 ± 0.07
DnaJ homolog subfamily B member 1 K35H, P25685 | -0.724 ± 0.12
DnaJ homolog subfamily B member 1 D17I, P25685 | -0.029 ± 0.076
DnaJ homolog subfamily B member 1 D65L, P25685 | -0.116 ± 0.085
DnaJ homolog subfamily B member 1 T8C, P25685 | -0.096 ± 0.094
DnaJ homolog subfamily B member 1 D53R, P25685 | -0.132 ± 0.14
DnaJ homolog subfamily B member 1 F45M, P25685 | -0.305 ± 0.092
DnaJ homolog subfamily B member 1 Y24R, P25685 | -0.404 ± 0.055

Substance | abundance fitness
DnaJ homolog subfamily B member 1 G40F, P25685 | -0.049 ± 0.13
DnaJ homolog subfamily B member 1 Q7V, P25685 | -0.307 ± 0.087
DnaJ homolog subfamily B member 1 L29Y, P25685 | -0.008 ± 0.089
DnaJ homolog subfamily B member 1 E47H, P25685 | -0.009 ± 0.11
DnaJ homolog subfamily B member 1 I63C, P25685 | -0.083 ± 0.1
DnaJ homolog subfamily B member 1 A28E, P25685 | -0.116 ± 0.12
DnaJ homolog subfamily B member 1 A15Y, P25685 | -1 ± 0.16
DnaJ homolog subfamily B member 1 A51Q, P25685 | -0.755 ± 0.086
DnaJ homolog subfamily B member 1 E47M, P25685 | -0.186 ± 0.096
DnaJ homolog subfamily B member 1 R30L, P25685 | 0.081 ± 0.067
DnaJ homolog subfamily B member 1 R25W, P25685 | -0.116 ± 0.092
DnaJ homolog subfamily B member 1 T8Q, P25685 | -0.165 ± 0.12
DnaJ homolog subfamily B member 1 E38L, P25685 | -0.099 ± 0.061
DnaJ homolog subfamily B member 1 L9R, P25685 | -1.01 ± 0.095
DnaJ homolog subfamily B member 1 E18H, P25685 | -0.066 ± 0.28
DnaJ homolog subfamily B member 1 L29F, P25685 | -0.04 ± 0.077
DnaJ homolog subfamily B member 1 D53V, P25685 | -0.013 ± 0.093
DnaJ homolog subfamily B member 1 Q7S, P25685 | -0.286 ± 0.081
DnaJ homolog subfamily B member 1 R30H, P25685 | -0.125 ± 0.088
DnaJ homolog subfamily B member 1 D34V, P25685 | -0.022 ± 0.081
DnaJ homolog subfamily B member 1 F45S, P25685 | -0.143 ± 0.085
DnaJ homolog subfamily B member 1 L11M, P25685 | -0.423 ± 0.12
DnaJ homolog subfamily B member 1 A49D, P25685 | -0.086 ± 0.12
DnaJ homolog subfamily B member 1 Y6E, P25685 | -0.683 ± 0.097
DnaJ homolog subfamily B member 1 K60Y, P25685 | -0.575 ± 0.29
